# Where no end group is shown, it is not given here. [ ]: non-standard residue; d: D form. The star is where a group is joined. MPB‑DPPE = 1,2-dipalmitoyl-sn-glycero-3-phosphoethanolamine-N-[4-(p-maleimidophenyl)butyramide], CCCCCCCCCCCCCCCC(=O)OC[C@H](COP(=O)(O)OCCNC(=O)CCCc1ccc(N2C(=O)CC(*)C2=O)cc1)OC(=O)CCCCCCCCCCCCCCC; pS = N[C@@H](COP(=O)(O)O)C(=O)O
# What was measured:
# μ2 KRR>E Core [1] = target: T1, μ2 KRR>E Core (Rattus norvegicus (alpha2, mu2), Homo …); experiment: SPR; liposomes with 10% PtdIns4,5P2 + 1% TGN38
# T1 sequence (chain, as listed by the source, chain 1 of 4): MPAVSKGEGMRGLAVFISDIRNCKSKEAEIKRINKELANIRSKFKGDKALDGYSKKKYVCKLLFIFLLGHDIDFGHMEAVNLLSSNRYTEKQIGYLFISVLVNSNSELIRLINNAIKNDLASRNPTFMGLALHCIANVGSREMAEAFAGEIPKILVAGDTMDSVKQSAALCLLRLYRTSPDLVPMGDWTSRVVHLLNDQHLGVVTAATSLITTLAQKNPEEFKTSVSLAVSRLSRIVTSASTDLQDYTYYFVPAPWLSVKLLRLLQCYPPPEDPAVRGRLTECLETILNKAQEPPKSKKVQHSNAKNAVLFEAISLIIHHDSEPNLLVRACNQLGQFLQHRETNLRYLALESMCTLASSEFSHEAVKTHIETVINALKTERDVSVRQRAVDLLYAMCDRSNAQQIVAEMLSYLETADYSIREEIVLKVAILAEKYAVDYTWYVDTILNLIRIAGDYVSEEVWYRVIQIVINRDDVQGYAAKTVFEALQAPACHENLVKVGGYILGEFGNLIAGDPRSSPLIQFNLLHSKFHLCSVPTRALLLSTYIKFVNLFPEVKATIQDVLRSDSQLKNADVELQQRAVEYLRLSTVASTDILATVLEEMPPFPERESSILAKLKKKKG
# T1 sequence (chain, as listed by the source, chain 2 of 4): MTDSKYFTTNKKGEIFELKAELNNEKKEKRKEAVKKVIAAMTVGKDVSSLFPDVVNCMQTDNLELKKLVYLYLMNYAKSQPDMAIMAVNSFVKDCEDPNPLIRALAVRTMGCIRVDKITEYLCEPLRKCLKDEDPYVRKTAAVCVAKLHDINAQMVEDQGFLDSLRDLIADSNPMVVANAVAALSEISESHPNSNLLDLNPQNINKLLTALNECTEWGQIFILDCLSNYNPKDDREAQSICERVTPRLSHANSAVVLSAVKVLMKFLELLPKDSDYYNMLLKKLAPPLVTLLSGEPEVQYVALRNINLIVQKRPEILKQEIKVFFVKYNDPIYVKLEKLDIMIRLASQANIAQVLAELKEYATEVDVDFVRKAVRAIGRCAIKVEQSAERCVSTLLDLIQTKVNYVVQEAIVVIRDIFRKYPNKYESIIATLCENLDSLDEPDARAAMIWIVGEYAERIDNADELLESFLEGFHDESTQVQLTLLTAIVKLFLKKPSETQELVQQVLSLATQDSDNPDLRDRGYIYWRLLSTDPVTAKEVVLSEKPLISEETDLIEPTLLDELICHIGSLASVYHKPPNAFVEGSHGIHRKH
# T1 sequence (chain, as listed by the source, chain 3 of 4): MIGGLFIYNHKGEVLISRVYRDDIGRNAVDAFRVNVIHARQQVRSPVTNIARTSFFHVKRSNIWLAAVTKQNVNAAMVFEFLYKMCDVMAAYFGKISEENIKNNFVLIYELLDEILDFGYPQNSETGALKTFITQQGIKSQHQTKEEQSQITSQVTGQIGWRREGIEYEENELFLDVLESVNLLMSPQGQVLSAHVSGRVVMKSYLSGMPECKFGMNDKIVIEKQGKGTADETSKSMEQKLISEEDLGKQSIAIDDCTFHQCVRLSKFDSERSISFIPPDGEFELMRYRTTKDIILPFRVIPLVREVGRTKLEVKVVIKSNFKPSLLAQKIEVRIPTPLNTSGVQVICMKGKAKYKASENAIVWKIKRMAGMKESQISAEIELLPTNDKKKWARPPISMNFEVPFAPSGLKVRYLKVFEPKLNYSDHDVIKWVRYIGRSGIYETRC
# T1 sequence (chain, as listed by the source, chain 4 of 4): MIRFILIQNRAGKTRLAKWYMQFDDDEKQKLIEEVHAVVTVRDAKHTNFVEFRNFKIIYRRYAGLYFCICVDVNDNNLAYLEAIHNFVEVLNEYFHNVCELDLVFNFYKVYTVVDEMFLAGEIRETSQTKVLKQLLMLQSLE
# [2] = target: β2^PIP-Core (AP2 core with β2 Lys5, Lys12, Lys26, Lys27, Lys29, Lys36 mutated to glutamate) (UniProt P63010 1-592; P84092 1-236; P84092 237-435; P62743 1-142, Lys5 to glutamate | Lys12 to glutamate | Lys26 to glutamate | Lys27 to …); experiment: SPR; liposomes with 10% PtdIns4,5P2 + 1% TGN38
# Chain of β2^PIP-Core (AP2 core with β2 Lys5, Lys12, Lys26, Lys27, Lys29, Lys36 mutated to glutamate) (P18484 other isoform, or with tags, fused parts or gaps with the stated changes, chain 1 of 4): as the sequence (chain, as listed by the source, chain 1 of 4) above
# Chain of β2^PIP-Core (AP2 core with β2 Lys5, Lys12, Lys26, Lys27, Lys29, Lys36 mutated to glutamate) (P63010 other isoform, or with tags, fused parts or gaps with the stated changes, chain 2 of 4): as the sequence (chain, as listed by the source, chain 2 of 4) above, with K5E, K12E, K26E, K27E, K29E, K36E counted along it
# Chain of β2^PIP-Core (AP2 core with β2 Lys5, Lys12, Lys26, Lys27, Lys29, Lys36 mutated to glutamate) (Q96CW1 other isoform, or with tags, fused parts or gaps with the stated changes, chain 3 of 4, further chain): as the sequence (chain, as listed by the source, chain 3 of 4) above, with E167K, E169R, E170R counted along it
# Chain of β2^PIP-Core (AP2 core with β2 Lys5, Lys12, Lys26, Lys27, Lys29, Lys36 mutated to glutamate) (B2R4Z4 whole entry, stated change not applied, chain 4 of 4, further chain): as the sequence (chain, as listed by the source, chain 4 of 4) above
# [3] = target: T2, AP2 core (recombinant; α trunk, β2 trunk, myc-tagged μ2, σ2) (UniProt P63010 1-592; P84092 1-236; P84092 237-435; P62743 1-142); experiment: SPR; liposomes with 10% PtdIns4,5P2 + 1% TGN38
# T2 sequence (chain, as listed by the source, chain 1 of 4): as the sequence (chain, as listed by the source, chain 1 of 4) above
# T2 sequence (P63010 1-592, chain 2 of 4): as the sequence (chain, as listed by the source, chain 2 of 4) above
# T2 sequence (P84092 other isoform, or with tags, fused parts or gaps, chain 3 of 4): as the sequence (chain, as listed by the source, chain 3 of 4) above, with E167K, E169R, E170R counted along it
# T2 sequence (P62743 whole entry, chain 4 of 4): as the sequence (chain, as listed by the source, chain 4 of 4) above
# [4] = target: α^PIP-Core (AP2 core with mutations in the PtdIns4,5P2-binding site on α) (UniProt P63010 1-592; P84092 1-236; P84092 237-435; P62743 1-142); experiment: SPR; liposomes with 10% PtdIns4,5P2 + 1% TGN38
# [5] = target: T3, μ2^PIP-Core (AP2 core with the μ2 mutations 5K>E and KRR>E combined) (UniProt P63010 1-592; P84092 1-236; P84092 237-435; P62743 1-142); experiment: SPR; liposomes with 10% PtdIns4,5P2 + 1% TGN38
# μ2 5K>E Core [6] = experiment: SPR; liposomes with 10% PtdIns4,5P2 + 1% TGN38
# μ2 KRR>E Core [7] = target: T1, μ2 KRR>E Core; experiment: SPR; liposomes with 10% PtdIns4,5P2 + 1% CD4P
# [8] = target: T2, AP2 core (recombinant; α trunk, β2 …); experiment: SPR; liposomes with 10% PtdIns4,5P2 + 1% CD4P
# [9] = target: T3, μ2^PIP-Core (AP2 core with the μ2 …); experiment: SPR; liposomes with 10% PtdIns4,5P2 + 1% CD4P
# μ2 5K>E Core [10] = experiment: SPR; liposomes with 10% PtdIns4,5P2 + 1% CD4P
Kd (μ2 KRR>E Core [1]) [nM],Kd [2] [nM],Kd [3] [nM],Kd [4] [nM],Kd [5] [nM],Kd (μ2 5K>E Core [6]) [nM],Kd (μ2 KRR>E Core [7]) [nM],Kd [8] [nM],Kd [9] [nM],Kd (μ2 5K>E Core [10]) [nM],Binder
330,20000,320,> 30000,6200,520,–,–,–,–,C(MPB‑DPPE)KVTRRPKASDYQRL [lipid-linked TGN38 sorting motif peptide (CKVTRRPKASDYQRL) displayed in liposomes]
–,–,–,–,–,–,850,820,2500,950,"C(1,2‑dipalmitoyl‑sn‑glycero‑3‑phosphoethanolamine‑N‑(4-(p-maleimidophenyl)butyramide))HRRRQAERM[pS]QIKRLLSEK"

# From PMC3655264 (2010)
